Experimental data published in article PMC9376089, “Reformation of the chondroitin sulfate glycocalyx enables progression of AR-independent prostate cancer”.

Experiments:
AR-DBD (EMSA) [1] = biological target: T1, AR-DBD (EMSA) (UniProt P10275 556-629); assay: EMSA; 100 fmol probe, AR-DBD titration, poly(dI-dC); BLI: 20 mM Tris pH 8, 150 mM NaCl, 5% glycerol, 2 mM DTT, 0.1 mM PMSF, temperature not stated; EMSA: 10 mM Tris pH 7.5, 50 mM KCl, DTT (1 mM); 2.5 mM with 0.25%; details: protein: recombinant, chain copies: 2, blunt
T1 sequence (P10275 556-629): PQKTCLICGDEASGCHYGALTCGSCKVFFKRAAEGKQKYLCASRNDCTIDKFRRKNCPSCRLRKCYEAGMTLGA

AR-DBD (EMSA) [2] = biological target: T1, AR-DBD (EMSA); assay: competition; 20 nmol unlabeled competitor (so in the source) vs labeled TMPRSS2-ARE; BLI: 20 mM Tris pH 8, 150 mM NaCl, 5% glycerol, 2 mM DTT, 0.1 mM PMSF, temperature not stated; EMSA: 10 mM Tris pH 7.5, 50 mM KCl, DTT (1 mM); 2.5 mM with 0.25%; details: protein: recombinant; chain copies: 2; blunt

B1: PSA-ARE (EMSA probe) (dsDNA)
DNA 1: TACAAATAGGTTCTTGGAGTACTTTACTAGGCATGGACAATG
DNA 2: CATTGTCCATGCCTAGTAAAGTACTCCAAGAACCTATTTGTA
B1: binds (AR-DBD (EMSA) [1]; label: 5' IRD700 on strand 1).

B2: CHST11-ARE (unlabeled competitor) (dsDNA)
DNA 1: AGATGCCCCAGTGTTCTAG
DNA 2: CTAGAACACTGGGGCATCT
B2: binds (AR-DBD (EMSA) [2]).

B3: CHST11-ARE (EMSA probe) (dsDNA)
DNA 1: AGATGCCCCAGTGTTCTAG
DNA 2: CTAGAACACTGGGGCATCT
B3: binds (AR-DBD (EMSA) [1]).
